Assay results: patent publication US6777536 (Harvard, dated 2004)

B2: mek4-AP soluble receptor fusion protein (mouse Mek4 receptor extracellular domain fused to secreted human placental alkaline phosphatase) (receptor)
chain: ELSPQPSNEVNLLDSKTIQGELGWISYPSHGWEEISGVDEHYTPIRTYQVCNVMDHSQNNWLRTNWVPRNSAQKIYVELKFTLRDCNSIPLVLGTCKETFNLYYMESDDHGVKFREHQFTKIDTIAADESFTQMDLGDRILKLNTEIREVGPVNKKGFYLAFQDVGACVALVSVRVYFKKCPFTVKNLAMFPDTVPMDSQSLVEVRGSCVNNSKEEDPPRMYCSTEGEWLVPIGKCTCNAGYEERGFICQACRPGFYKASDGAAKCAKCPPHSSTQEDGSMNCRCENNYFRAEKDPPSMACARPPSAPRNVISNINETSVILDWSWPLDTGGRKDITFNIICKKCGWNVRQCEPCSPNVRFLPRQLGLTNTTVTVTDLLAHTNYTFEIDAVNGVSELSSPPRQYAAVSITTNQAAPSPVMTIKKDRTSRNSISLSWQEPEHPNGIILDYEVKYYQKQEQETSYTILRARGTNVTISSLKPDTTYVFQIRARTAAGYGTNSRKFEFETSPDSFSISGENSHGSSG
notes: extracellular domain; Used as unpurified conditioned supernatant of stably transfected NIH-3T3 cells; Apparent molecular weight about 150 kD; also called AP-mek4; not shown: secreted human placental alkaline phosphatase, as encoded by vector APtag-1 (Flanagan and Leder 1990)

Key:
[1] = target: B2; experiment: Scatchard analysis of AP fusion binding to COS cells transfected with Elf-1, colorimetric assay of bound AP activity
Protocol: (§1) (FIGS. 3A and 3D) Cells were treated with saturating amounts of mek4-AP or sek-AP, or with AP, each at 500 OD/hr/ml. Columns show the average of two binding determinations, and error bars indicate the difference between the two. (FIGS. 3B–C and 3E–F) show the Scatchard analyses of binding. (FIGS. 3A–3C illsutrate binding to COS cells transfected with Elf-1, and FIGS. 3D–F show endogenous ligand expression by the BRL-3A cell line).

[2] = target: T1, sek-AP soluble receptor fusion protein (mouse Sek receptor extracellular domain fused to secreted human … (mouse; human, UniProt Q03137 20-547); experiment: as above
T1 construct: extracellular domain; Used as unpurified conditioned supernatant of stably transfected NIH-3T3 cells; Apparent molecular weight about 150 kD; also called Ap-sek; not shown: secreted human placental alkaline phosphatase, as encoded by vector APtag-1 (Flanagan and Leder 1990)
T1 sequence (Q03137 other isoform, or with tags, fused parts or gaps): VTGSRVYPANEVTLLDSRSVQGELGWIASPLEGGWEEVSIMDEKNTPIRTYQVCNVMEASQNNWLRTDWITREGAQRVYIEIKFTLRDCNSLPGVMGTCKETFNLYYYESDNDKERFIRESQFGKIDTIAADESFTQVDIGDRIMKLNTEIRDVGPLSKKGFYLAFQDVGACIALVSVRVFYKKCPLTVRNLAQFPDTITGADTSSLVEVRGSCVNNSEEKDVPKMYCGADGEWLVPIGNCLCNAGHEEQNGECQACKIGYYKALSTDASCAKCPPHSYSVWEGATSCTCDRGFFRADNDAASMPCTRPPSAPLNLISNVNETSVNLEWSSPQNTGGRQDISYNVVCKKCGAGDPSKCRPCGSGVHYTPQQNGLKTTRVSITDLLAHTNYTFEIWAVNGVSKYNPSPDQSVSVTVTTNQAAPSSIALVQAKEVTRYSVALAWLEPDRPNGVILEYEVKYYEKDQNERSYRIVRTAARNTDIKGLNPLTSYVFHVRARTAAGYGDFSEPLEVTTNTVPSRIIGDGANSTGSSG
Protocol: as §1

[3] = target: B2; experiment: Scatchard analysis, COS cells transfected with Elf-1
[4] = target: T1, sek-AP soluble receptor fusion protein …; experiment: as above
[5] = target: T2, cell surface ligand expressed endogenously in the rat liver stromal cell line BRL-3A (rat); experiment: Scatchard analysis of AP fusion binding to BRL-3A cells (endogenous ligand)
T2 construct: PI-PLC sensitive (GPI-linked) cell surface ligand; also called endogenous ligand of BRL-3A cells
Protocol: as §1
A panel of cell lines was tested with mek4-AP and sek-AP for endogenous expression of a cell surface ligand. Briefly, cells were treated with supernatants containing mek4-AP, sek-AP or unfused AP as a control, each at 1,000 OD/hr/ml. The cells were then washed, lysed and assayed colorimetrically for bound AP activity. […] The highest binding was shown by the rat liver stromal cell line BRL-3A, the mink lung fibroblast line Mv1Lu, and two neural crest cell lines, NC7mycblue and NC7EIablue. The BRL-3A cell line was analyzed further. […] The number of binding sites per BRL-3A cell is approximately 50,000. In situ staining was also used to examine the cell surface binding of mek4-AP and sek-AP to BRL-3A cells, and indicated expression of the ligand over the whole cell surface.

B1: Elf-1 (mouse EPH ligand family-1), expressed on the surface of transiently transfected COS cells (ligand)
chain: RNEDPARANADRYAVYWNRSNPRFQVSAVGDGGGYTVEVSINDYLDIYCPHYGAPLPPAERMERYILYMVNGEGHASCDHRQRGFKRWECNRPAAPGGPLKFSEKFQLFTPFSLGFEFRPGHEYYYISATPPNLVDRPCLRLKVYVRPTNETLYEAPEPIFTSN
modifications: C-terminal glycosyl phosphatidylinositol anchor (sensitive to PI-PLC); attachment residue not stated
notes: The full-length cDNA (209 amino acids) was transfected; also called muElf-1; cell surface Elf-1
Kd [1]: 1.8 nM | Kd [2]: 18 nM | Kd [3]: ~1 nM | Kd [4]: ~10 nM

B2
Kd [5]: 1.3 nM
